For experiment [1], the target named is CR1 cyclic peptide of human LRP-8 (human). In words: ELISA using CR1 peptide.
For experiment [2], the target named is Cynomolgus monkey LRP-8 expressed on HEK293 cells (cynomolgus monkey). In words: FACS, cyno LRP8 cells.
Experiment [3] has as its target Mouse LRP-8 expressed on HEK293 cells (mouse) (UniProt Q924X6). Description: FACS, mouse LRP8 cells.

Regarding “Negative IgG control (Table 20) (antibody)”, the OD450 in experiment [1] is 0.08 OD450. Moreover, the FACS (ratio +/-) in experiment [2] turned out to be 0.8; in experiment [3], 1.

The values are drawn from patent US20160200813A1.
